In the supplement of paper PMC12764529:
± gives the half width of the 95% confidence interval.

Columns and labels:
[1] = folding stability dG unfold from trypsin proteolysis; higher = more stable
Summary of the method: (§1)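 Mini-proteins designed to be under 80 residues and free of cysteine were carried in a PA-tagged cDNA display construct and digested with trypsin and with chymotrypsin. Each protease was applied at 11 threefold-diluted concentrations, alongside a no-protease condition, before sequencing. K50 came from Bayesian fitting of the sequencing counts, and unfolding free energy was obtained by comparing it with a sequence-predicted unfolded-state K50 and a shared folded-state K50, for each protease separately or for both together. Designs were retained only if their AlphaFold2 dimer inter-PAE exceeded 15.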

[2] = folding stability dG unfold from chymotrypsin proteolysis; higher = more stable
Summary of the method: as §1

[3] = folding stability dG unfold (combined trypsin and chymotrypsin); higher = more stable
Summary of the method: as §1

Sequence	folding stability dG unfold [1] [kcal/mol]	folding stability dG unfold [2] [kcal/mol]	folding stability dG unfold [3] [kcal/mol]
SAGGSAGGSAGGSKKKPPKKITLVVWNEETGELTKVEFDAETKEVKVEKVPIKPGDILLSAGGSAGGSAGGS [r4_409_TrROS_Hall]	1.18 ± 0.034	0.946 ± 0.062	0.988 ± 0.21
SAGGSAGGSAGGSKPEVIKLKVKKIKVKKKKYDKNGKLVEEEEKEITVETTVFVPKEDLSAGGSAGGSAGGS [r4_425_TrROS_Hall]	-0.381 ± 0.18	0.336 ± 0.14	0.182 ± 0.17
SAGGSAGGSAGGSKPMYLFTVETENGKKLVIEAKSLEEALKALEKAGYKIKKVEVVKLPSAGGSAGGSAGGS [r4_213_TrROS_Hall]	3.36 ± 0.1	3.996 ± 0.036	3.81 ± 0.071
SAGGSAGGSAGGSKPNNFKNIPKPVFKFKITTTEWKKNKDGTWTPVSTSTAEVTVWSNTSAGGSAGGSAGGS [r4_288_TrMRF]	3.2 ± 0.11	4.29 ± 0.1	3.88 ± 0.21
SAGGSAGGSAGGSKTIEIELPGMSPEEIAAAIAEELGLDDVKITVERTEDGLLRVTIEVSAGGSAGGSAGGS [r4_408_TrROS_Hall]	1.57 ± 0.057	1.81 ± 0.049	1.76 ± 0.057
SAGGSAGGSAGGSKYEIEILKIEELEDDSYRITAKINIPEAGTTEEITLTVPKGVELKLSAGGSAGGSAGGS [r4_133_TrMRF]	1.21 ± 0.017	1.21 ± 0.062	1.23 ± 0.072
SAGGSAGGSAGGSLTFDGPDTKIEVYELDDDLLPVTIYTDSAPRTILVPPKEFLKLLASSAGGSAGGSAGGS [r4_346_TrMRF]	0.0915 ± 0.071	0.449 ± 0.085	0.367 ± 0.089
SAGGSAGGSAGGSMELKLKVVEKTETRSATPGEDEPLPGNSSVTYEGNTLTTTTLVLVPLSAGGSAGGSAGG [r7_506_JUSTAS]	-0.728 ± 0.28	-0.736 ± 0.44	-0.72 ± 0.34
SAGGSAGGSAGGSMIVERKPAPGGPRVEITIEIPDPTSDVPIIKKLVAEVLEDGSIVKASAGGSAGGSAGGS [r4_448_JUSTAS]	-0.193 ± 0.16	-0.525 ± 0.27	-0.205 ± 0.21
SAGGSAGGSAGGSMKIVEVELIEYDEETKEFVYVFRVRLEDGSERLIVITPDGEMRVVPSAGGSAGGSAGGS [r4_35_TrROS_Hall]	2.61 ± 0.064	3.481 ± 0.031	3.26 ± 0.055
SAGGSAGGSAGGSMKNVPVTVEGSSSVVPLPDGSPVTVTELTTTTLGENGEVSTSTTVVSSAGGSAGGSAGG [r11_817_JUSTAS]	-0.614 ± 0.07	1.34 ± 0.039	0.905 ± 0.083
SAGGSAGGSAGGSMLKGKIISVDPKKGYAIIYIPGKKKLLIIKFDPDNTIVEIKEAPLSSAGGSAGGSAGGS [r4_192_TrMRF]	2.82 ± 0.35	2.21 ± 0.14	2.44 ± 0.33
SAGGSAGGSAGGSMPVKLDEIIDYDPKKKVLTVLLTHPDGSKSLVVVPGKSIEEIKEANSAGGSAGGSAGGS [r4_357_TrMRF]	0.314 ± 0.029	0.709 ± 0.029	0.648 ± 0.098
SAGGSAGGSAGGSMSVSSVGSSSGAGMIVKTTYFPGSGGTTVVLIEPASGVVLATTPVPGSAGGSAGGSAGG [r7_154_JUSTAS]	0.493 ± 0.04	0.272 ± 0.079	0.374 ± 0.13
SAGGSAGGSAGGSMTSIKITYPDGSTKSASVSVDPNTGKVTTTFTDYTLSPDAKFTTISSAGGSAGGSAGGS [r10_306_JUSTAS]	0.372 ± 0.027	0.202 ± 0.11	0.325 ± 0.073
SAGGSAGGSAGGSMVIRNENGYLIEVKTEVVVDEETKKKYVKTEIRIYKEGEEKELPEESAGGSAGGSAGGS [r4_48_TrROS_Hall]	0.369 ± 0.055	1.13 ± 0.1	1 ± 0.22
SAGGSAGGSAGGSMVLTTTVEETVVDENGVETKITVKTYKLPDSEITLVTFPDGTVTPESAGGSAGGSAGGS [r10_404_JUSTAS]	0.493 ± 0.023	0.462 ± 0.1	0.493 ± 0.072
SAGGSAGGSAGGSNIEVHYFPDGAIVMTIREPNGWYIKIVARIPPDGNIKITEIELFPMSAGGSAGGSAGGS [r4_246_TrROS]	3.24 ± 0.11	3.78 ± 0.11	3.49 ± 0.2

Sequence	folding stability dG unfold [1] [kcal/mol]	folding stability dG unfold [2] [kcal/mol]	folding stability dG unfold [3] [kcal/mol]
SAGGSAGGSAGGSNIPSDSTVTSKGSSDTTTSTYYNPETGTTLVTTTPPDGVPTTTTTASAGGSAGGSAGGS [r10_592_JUSTAS]	0.621 ± 0.059	-0.398 ± 0.36	0.159 ± 0.12
SAGGSAGGSAGGSPEFKIVSVEYDPETGLVTLEIEREDGSTLRFVFDKDGKLVRVEELPSAGGSAGGSAGGS [r4_259_TrROS_Hall]	3.31 ± 0.22	4.56 ± 0.15	4.44 ± 0.19
SAGGSAGGSAGGSPKRVTMYFIIPFYILIPKEDADGNNEWVIIPITIIIKIEIELPPGDSAGGSAGGSAGGS [r4_326_TrROS]	4.5 ± 0.15	5.49 ± 0.14	5.48 ± 0.19
SAGGSAGGSAGGSPKTILLEVNGRLVLVTVKDGKVEIRDLENPNKTYTFPPGAKILIVDSAGGSAGGSAGGS [r4_321_TrROS_Hall]	1.61 ± 0.021	1.91 ± 0.035	1.84 ± 0.06
SAGGSAGGSAGGSPLLDFPEPVTTLEETTVTVYFDTNDFTVTLNVTTEVTGDVKRPTVVGSAGGSAGGSAGG [r7_735_JUSTAS]	1.1 ± 0.044	0.464 ± 0.051	0.788 ± 0.11
SAGGSAGGSAGGSPNWKWVEMEITFNVPPGAKITIPNGIKLTVPPGDPVTIKIYIAVPPSAGGSAGGSAGGS [r4_232_TrROS]	1.94 ± 0.12	2.96 ± 0.048	2.47 ± 0.31
SAGGSAGGSAGGSPNYRLEIRVDIKVSYRYDLFTGEPIEPEVEIEVEIRLIPEGAIVDESAGGSAGGSAGGS [r4_175_TrMRF]	3.87 ± 0.14	4.54 ± 0.28	4.57 ± 0.28
SAGGSAGGSAGGSPPGQEILIQIKIEFTFPIKKQTDGKPQWHPITISFTAAIPIKVDPNSAGGSAGGSAGGS [r4_271_TrROS]	3.22 ± 0.13	3.59 ± 0.092	3.52 ± 0.14
SAGGSAGGSAGGSPVIIPDKGYLVVELEEEGLLVVYPLYPDGEIGPAFVRPVHPDVPVLSAGGSAGGSAGGS [r4_409_TrMRF]	2.61 ± 0.062	0.982 ± 0.039	1.92 ± 0.072
SAGGSAGGSAGGSPVRVKLKFKKKFTVLLPLTDEDDEILDVEKEYTVEITLEVTLPPDLSAGGSAGGSAGGS [r4_326_TrMRF]	3.26 ± 0.15	4.34 ± 0.2	4.01 ± 0.48
SAGGSAGGSAGGSRMRLEITVRDENGLLVRLEVEFEEKDGELEMKVRAEVFPLPEEEEESAGGSAGGSAGGS [r4_168_TrROS_Hall]	0.939 ± 0.04	2.71 ± 0.059	2.44 ± 0.1
SAGGSAGGSAGGSSFTIKVELKDENGNKYTITVTGTGSAETVKKELEKKYPNKIVKITGSAGGSAGGSAGGS [r4_412_TrMRF]	1.93 ± 0.089	2.897 ± 0.025	2.69 ± 0.046
SAGGSAGGSAGGSSKVIEVNGYKITVTDNSVEIYNKKTGKKITVNADNPEVQELLKKLLSAGGSAGGSAGGS [r4_353_TrROS_Hall]	3.6 ± 0.089	4.254 ± 0.037	4.07 ± 0.094
SAGGSAGGSAGGSSSSLTPIGSSEKLEKLPDSSLRLVTTTTYRDPVTGETSTTTTVTLTDSAGGSAGGSAGG [r7_546_JUSTAS]	-0.46 ± 0.091	0.861 ± 0.045	0.487 ± 0.052
SAGGSAGGSAGGSSSSSITTEERPVDEDSVEKTFKFPDYYVVETLDPRTGRTSVSFIPVSAGGSAGGSAGGS [r4_99_JUSTAS]	0.756 ± 0.021	0.249 ± 0.041	0.533 ± 0.072
SAGGSAGGSAGGSSSVSVDTDPETGLITVTTYSSSGGVTVTLYEKPPDGSLTPVSTTAVSAGGSAGGSAGGS [r4_106_JUSTAS]	1.08 ± 0.045	0.844 ± 0.07	1.01 ± 0.046
SAGGSAGGSAGGSTKTYNAEIDNPNGPKITIPIEYRNEDGESDFEEKAKKFAEEYAKKYSAGGSAGGSAGGS [r4_168_TrMRF]	-0.886 ± 0.46	0.906 ± 0.16	0.547 ± 0.14
SAGGSAGGSAGGSVTISYNPETGTVVISSPKNKKIITINAENYTPEEILEKAKEAGIDLSAGGSAGGSAGGS [r4_49_TrMRF]	0.613 ± 0.035	2.02 ± 0.056	1.64 ± 0.045
